Measurements from US20160166638A1, “LACTOFERRIN-OSTEOPONTIN-IRON COMPLEX” (NESTEC S.A., priority 2013, published 2016).

Test: Colour change of iron fortified strawberry-banana yoghurt after flash pasteurization (CIELAB colorimetry)
Format: physicochemical
Details: colour difference vs yoghurt with no iron salts; Jogolino Strawberry/Banana yoghurt, approx. 0.8 mg iron per 100 g; flash pasteurized at 105° C. for 2 minutes
Procedure: Commercial yoghurt, Nestlé Jogolino™ Strawberry/Banana yoghurt containing 15% banana puree and 10% strawberry puree, was iron fortified by the addition of different iron containing materials to 5 kg yoghurt as reported in the table below. The amounts were chosen to provide approximately 0.8 mg iron per 100 g yoghurt. A 100 g serving of yoghurt with that level of iron would provide 15% of the recommended daily amount of iron for an infant [Official Journal of the European Union, Commission Directive 2006/125/EC].
For the lactoferrin-osteopontin-iron complex (Trial B), the powder from Example 1 was added to yoghurt at a level of 28 g per 5 kg yoghurt. The resulting yoghurt composition comprised 5.6 g powder per kg which is 4 g LF-OPN-Fe complex per kg.
The yoghurts were flash pasteurized at 105° C. for 2 minutes. Colour measurements were performed in 1×1 cm polystyrene cuvettes using an X-Rite ColorEye 7000A colorimeter. The colorimeter was set up with a D65 light source, 10 degree observer angle and with specular component included. The colour difference between the yoghurt with no iron salts and the iron fortified yoghurt was measured for each iron salt and expressed as ΔEab* using the CIELAB colour scale.

B1: Lactoferrin-Fe: Lactoferrin obtained from Armor proteins, supplied with some iron complexed to it; comparison fortificant (protein, UniProt P24627 20-708, looked up)
Lactotransferrin: APRKNVRWCTISQPEWFKCRRWQWRMKKLGAPSITCVRRAFALECIRAIAEKKADAVTLDGGMVFEAGRDPYKLRPVAAEIYGTKESPQTHYYAVAVVKKGSNFQLDQLQGRKSCHTGLGRSAGWIIPMGILRPYLSWTESLEPLQGAVAKFFSASCVPCIDRQAYPNLCQLCKGEGENQCACSSREPYFGYSGAFKCLQDGAGDVAFVKETTVFENLPEKADRDQYELLCLNNSRAPVDAFKECHLAQVPSHAVVARSVDGKEDLIWKLLSKAQEKFGKNKSRSFQLFGSPPGQRDLLFKDSALGFLRIPSKVDSALYLGSRYLTTLKNLRETAEEVKARYTRVVWCAVGPEEQKKCQQWSQQSGQNVTCATASTTDDCIVLVLKGEADALNLDGGYIYTAGKCGLVPVLAENRKSSKHSSLDCVLRPTEGYLAVAVVKKANEGLTWNSLKDKKSCHTAVDRTAGWNIPMGLIVNQTGSCAFDEFFSQSCAPGADPKSRLCALCAGDDQGLDKCVPNSKEKYYGYTGAFRCLAEDVGDVAFVKNDTVWENTNGESTADWAKNLNREDFRLLCLDGTRKPVTEAQSCHLAVAPNHAVVSRSDRAAHVKQVLLHQQALFGKNGKNCPDKFCLFKSETKNLLFNDNTECLAKLGGRPTYEEYLGTEYVTAIANLKKCSTSPLLEACAFLTR
modifications: iron complex
notes: Lactoferrin obtained from Armor proteins, supplied with some iron complexed to it; comparison fortificant
ΔEab*: 5.64
